US20130005012A1, “ENZYMATIC SYSTEM FOR MONOMER SYNTHESIS” (PHYTOGENE, INC., priority 2011, published 2013)

B3: yeast FDC (ferulic acid decarboxylase, FDC1, Saccharomyces cerevisiae) in bait vector pGBKT7-Gateway (enzyme)
chain: MRKLNPALEFRDFIQVLKDEDDLIEITEEIDPNLEVGAIMRKAYESHLPAPLFKNLKGASKDLFSILGCPAGLRSKEKGDHGRIAHHLGLDPKTTIKEIIDYLLECKEKEPLPPITVPVSSAPCKTHILSEEKIHLQSLPTPYLHVSDGGKYLQTYGMWILQTPDKKWTNWSIARGMVVDDKHITGLVIKPQHIRQIADSWAAIGKANEIPFALCFGVPPAAILVSSMPIPEGVSESDYVGAILGESVPVVKCETNDLMVPATSEMVFEGTLSLTDTHLEGPFGEMHGYVFKSQGHPCPLYTVKAMSYRDNAILPVSNPGLCTDETHTLIGSLVATEAKELAIESGLPILDAFMPYEAQALWLILKVDLKGLQALKTTPEEFCKKVGDIYFRTKVGFIVHEIILVADDIDIFNFKEVIWAYVTRHTPVADQMAFDDVTSFPLAPFVSQSSRSKTMKGGKCVTNCIFRQQYERSFDYITCNFEKGYPKGLVDKVNENWKRYGYK
notes: Yeast two-hybrid bait fusion expressed in Clontech Y2HGold cells; also called FDC (Bait vector); not shown: fusion partner encoded by yeast two-hybrid bait vector pGBKT7-Gateway

Experiments:
[1] = target: T1, FDC1 (Saccharomyces cerevisiae, UniProt Q03034); assay: Effect of metal ions on activity of purified FDC1; assay type: biochemical; conditions: 10 mM metal ion, 1.4 mM tCA, pH 6.5, 5 minutes at 30° C., versus control without metal ions
T1 construct: 6xHis (N-terminal tag of vector pDEST17); made in house; host or cells: E. coli BL21(DE3)
T1 sequence (Q03034 1-503): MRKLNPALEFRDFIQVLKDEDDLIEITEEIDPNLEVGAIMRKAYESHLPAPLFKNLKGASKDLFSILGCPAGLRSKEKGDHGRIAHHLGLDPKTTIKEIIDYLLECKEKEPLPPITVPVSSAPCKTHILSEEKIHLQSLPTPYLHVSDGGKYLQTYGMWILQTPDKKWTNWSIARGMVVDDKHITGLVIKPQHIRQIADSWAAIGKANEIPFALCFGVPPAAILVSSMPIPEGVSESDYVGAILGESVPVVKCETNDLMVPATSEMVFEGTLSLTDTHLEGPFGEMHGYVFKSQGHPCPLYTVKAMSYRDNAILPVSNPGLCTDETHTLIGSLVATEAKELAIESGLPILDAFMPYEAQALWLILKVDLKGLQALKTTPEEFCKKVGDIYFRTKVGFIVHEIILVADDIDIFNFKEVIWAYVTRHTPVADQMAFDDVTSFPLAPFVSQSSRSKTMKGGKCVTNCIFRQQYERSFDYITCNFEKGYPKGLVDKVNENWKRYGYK
Method: To study the effect of metal ions on FDC1 activity, we carried out reactions with various metal ions, including ZnSO4, FeCl3, MnCl2, MgSO4, CaCl2, MnSO4, and FeSO4. Reaction mixtures of 25 mM potassium phosphate buffer pH 6.5 containing 1.4 mM tCA, 5 mM DTT, 10 mM metal ion, and 0.5 mg purified FDC1 adjusted to a final volume of 1 mL were incubated for 5 minutes at 30° C. After the reaction, 1 mL of propanol was added to the reaction mixtures to solubilize styrene. The experimental control used the same conditions except the reaction mixture contained no metal ions. The experimental negative control used the same conditions except the reaction mixture contained no substrate. […] The effects of Zn^2+ and Fe^3+ on FDC1 activity were further investigated using EDTA to cancel out the effects of the metal ions. Reaction mixtures of 25 mM potassium phosphate buffer pH 6.5 containing 1.4 mM tCA, 5 mM DTT, 10 mM metal ion, 10 mM EDTA and 0.5 mg purified FDC1 were adjusted to a final volume of 1 mL, and were incubated for 5 minutes at 30° C. After the reaction, 1 mL of propanol was added to the reaction mixtures to solubilize styrene. The experimental control used the same conditions except the reaction mixture contained no metal ions or EDTA. The experimental negative control used the same conditions except the reaction mixture contained no substrate. […] Based on results presented in FIGS. 10A and 10B, enzyme activity of FDC1 can be increased by metal ions and it was not due to experimental artifact.

[2] = target: T2, yeast FDC (ferulic acid decarboxylase, FDC1, Saccharomyces cerevisiae) in prey vector pGADT7-Gateway (Saccharomyces cerevisiae, UniProt Q03034 1-503); assay: yeast two-hybrid, growth on SD-Trp-Leu-His plate (bait PAD1, prey FDC)
T2 construct: Yeast two-hybrid prey fusion expressed in Clontech Y2HGold cells; also called FDC (Prey vector); not shown: fusion partner encoded by yeast two-hybrid prey vector pGADT7-Gateway
T2 sequence: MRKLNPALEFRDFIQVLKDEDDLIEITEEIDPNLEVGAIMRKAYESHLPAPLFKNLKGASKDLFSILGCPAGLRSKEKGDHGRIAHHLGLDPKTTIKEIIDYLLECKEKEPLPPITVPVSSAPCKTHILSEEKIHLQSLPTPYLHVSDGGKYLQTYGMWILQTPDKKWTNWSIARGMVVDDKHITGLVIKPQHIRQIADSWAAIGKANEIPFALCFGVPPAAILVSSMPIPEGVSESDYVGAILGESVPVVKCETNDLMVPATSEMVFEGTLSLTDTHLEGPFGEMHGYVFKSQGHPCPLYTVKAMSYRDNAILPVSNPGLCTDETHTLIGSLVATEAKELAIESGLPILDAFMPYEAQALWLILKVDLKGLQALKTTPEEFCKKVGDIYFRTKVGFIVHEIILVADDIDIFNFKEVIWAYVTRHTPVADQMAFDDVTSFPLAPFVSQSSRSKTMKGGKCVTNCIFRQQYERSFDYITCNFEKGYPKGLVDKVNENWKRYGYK
Method: (§1) We used yeast-two-hybrid system to test this hypothesis. […] Vectors pGBKT7-Gateway and pGADT7-Gateway are gifts from Dr. Brian P. Downes, Department of Biology, St Louis University (St Louis, Mo.). The resulting vectors were used to transform Clontech Y2HGold cells by one step transformation protocol as described in Example 4. 100 μl of the transformed cultures were spread on SD-Trp-Leu as well as SD-Trp-Leu-His plates and incubated at 30° C. for 3 days.

[3] = target: B3; assay: yeast two-hybrid, growth on SD-Trp-Leu-His plate (bait FDC, prey PAD1)
Method: as §1

[4] = test system: p-coumaric acid; assay: Feeding p-coumaric acid to Wat11 yeast expressing FDC, HPLC of products; assay type: cell-based, S. cerevisiae
Method: (§2) 0.8 ml of well-suspended cultures was taken out of the culture tube and 0.4 ml of ethyl acetate was added. The mixture was votexed at the maximum speed for half an hour and centrifuged at 15,000 rpm for 10 min at room temperature.
(§3) The extracted samples were analyzed by HPLC. HPLC was performed with an Agilent 1100 Series HPLC system using a SymmetryShield C18 column (Waters, 150×3.9 mm). The mobile phase consisted of solvent A (0.1% trifluoroacetic acid) and solvent B (acetonitrile). The gradient elution procedure was as follows: 0-5 min, 0% of B; 5-35 min, a linear gradient from 0% to 90% of B; 35-38 min, 90% of B; 38-40 min, 0% of B. The flow rate was 1.0 ml/min. The injection volume was 30 μl. Peaks for substrate and products areas were monitored at 260 nm. With this method, the retention times for cinnamic acid, p-coumaric acid, ferulic acid, styrene, 4-hydroxystyrene, and 4-vinylguaiacol (4-VG) were 21.5, 17.7, 17.7, 27.8, 22.3 and 22.1 min, respectively.

[5] = test system: ferulic acid; assay: Feeding ferulic acid to Wat11 yeast expressing FDC, HPLC of products; assay type: cell-based, S. cerevisiae
Method: as §2, §3

[6] = test system: cinnamic acid; assay: Comparison of PAD1, FDC and OHBA1 activities in E. coli fed 1-40 mM cinnamic acid; assay type: cell-based
Method: Sample (0.5 ml) was taken various treatments, and extracted with 0.3 ml of ethyl acetate. The upper phase was used for the analysis of the product styrene, and the lower phase for the analysis of cinnamic acid left in the medium.

[7] = target: T2, yeast FDC (ferulic acid decarboxylase, …); assay: yeast two-hybrid, growth on SD-Trp-Leu-His plate (bait FDC, prey FDC)
Method: as §1

[8] = test system: cinnamic acid; assay: Feeding cinnamic acid to E. coli BL21AI expressing the enzyme, HPLC of products; assay type: cell-based; conditions: 2 mM cinnamic acid, 37° C.
Method: as §2, §3
Plasmid pDEST17-PAD1 was transformed into E. coli strain BL21AI competent cells (Invitrogen). An overnight culture (2 ml) was inoculated into 40 ml of LB medium supplemented with 100 µg/ml ampicillin. Bacteria were grown at 37° C. in a shaker at 250 rpm for 3 h and then 0.2% (w/v) arabinose was added to the culture, followed by the addition of 2 mM of cinnamic acid. […]

[9] = test system: ferulic acid; assay: Feeding ferulic acid to E. coli BL21AI expressing FDC, HPLC of products; assay type: cell-based
Method: as §2, §3
In E. coli, pDEST17-FDC was transformed into E. coli strain BL21AI competent cells (Invitrogen). An overnight culture (2 ml) was inoculated into 40 ml of LB medium supplemented with 100 µg/ml ampicillin. […] The induced culture was further incubated at 37° C. and samples were taken at different time points for the analysis.

[10] = test system: cinnamic acid; assay: Feeding cinnamic acid to Wat11 yeast expressing the enzyme, HPLC of products; assay type: cell-based, S. cerevisiae; conditions: 2 mM cinnamic acid, extracted after 8 hours
Method: as §2
as §3, with “respectively. […]” for “respectively.”
After transformation, 100 μl of the transgenic yeast culture was spread on SD-trp medium (Clontech, Mountain View, Calif.) and incubated at 30° C. for 3 days. […] 2 mM cinnamic acid was added to 2 d-old yeast culture and the products were extracted with ethyl acetate after 8 hours and analyzed by HPLC.

Molecule: [Ca+2].[Cl-].[Cl-] [Ca^+2, CaCl2]
- effect on FDC1 activity (styrene produced) [1]: increased the activity of FDC1

Molecule: [Cl][Fe]([Cl])[Cl] [Fe^+3, FeCl3]
- effect on FDC1 activity (styrene produced) [1]: increased the activity of FDC1

Molecule: O=S(=O)([O-])[O-].[Mg+2] [Mg^+2, MgSO4]
- effect on FDC1 activity (styrene produced) [1]: increased the activity of FDC1

Molecule: O=S(=O)([O-])[O-].[Zn+2] [Zn^+2, ZnSO4]
- effect on FDC1 activity (styrene produced) [1]: increased the activity of FDC1

B1: yeast PAD1 (phenylacrylic acid decarboxylase, Saccharomyces cerevisiae) in bait vector pGBKT7-Gateway (enzyme)
chain: VAITGATGVALGIRLLQVLKELSVETHLVISKWGAATMKYETDWEPHDVAALATKTYSVRDVSACISSGSFQHDGMIVVPCSMKSLAAIRIGFTEDLITRAADVSIKENRKLLLVTRETPLSSIHLENMLSLCRAGVIIFPPVPAFYTRPKSLHDLLEQSVGRILDCFGIHADTFPRWEGIKSK
notes: Yeast two-hybrid bait fusion expressed in Clontech Y2HGold cells; also called PAD1 (Bait vector); not shown: fusion partner encoded by yeast two-hybrid bait vector pGBKT7-Gateway
- binding result [2]: no binding

B2: yeast PAD1 (phenylacrylic acid decarboxylase, Saccharomyces cerevisiae) in prey vector pGADT7-Gateway (enzyme)
chain: VAITGATGVALGIRLLQVLKELSVETHLVISKWGAATMKYETDWEPHDVAALATKTYSVRDVSACISSGSFQHDGMIVVPCSMKSLAAIRIGFTEDLITRAADVSIKENRKLLLVTRETPLSSIHLENMLSLCRAGVIIFPPVPAFYTRPKSLHDLLEQSVGRILDCFGIHADTFPRWEGIKSK
notes: Yeast two-hybrid prey fusion expressed in Clontech Y2HGold cells; also called PAD1 (Prey vector); not shown: fusion partner encoded by yeast two-hybrid prey vector pGADT7-Gateway
- binding result [3]: no binding

Molecule: B3
- 4-hydroxystyrene production upon feeding of p-coumaric acid [4]: production of 4-hydroxystyrene
- 4-VG production upon feeding of ferulic acid [5]: production of 4-VG
- styrene biosynthesis ([6]; E. coli, after feeding on cinnamic acid substrate for 2 h): 94.6 mg/L
- binding result [7]: binds
- styrene production upon feeding of cinnamic acid [8]: Production of styrene was observed
- 4-vinylguaiacol (4-VG) production upon feeding of ferulic acid [9]: Production of 4-vinylguaiacol (4-VG) was also observed
- styrene production upon feeding of cinnamic acid [10]: production of styrene

B4: PAD1: phenylacrylic acid decarboxylase from S. cerevisiae, SEQ ID NO:10 encoded by SEQ ID NO:9 (protein, listed as Saccharomyces cerevisiae)
chain: MLLFPRRTNIAFFKTTGIFANFPLLGRTITTSPSFLTHKLSKEVTRASTSPPRPKRIVVAITGATGVALGIRLLQVLKELSVETHLVISKWGAATMKYETDWEPHDVAALATKTYSVRDVSACISSGSFQHDGMIVVPCSMKSLAAIRIGFTEDLITRAADVSIKENRKLLLVTRETPLSSIHLENMLSLCRAGVIIFPPVPAFYTRPKSLHDLLEQSVGRILDCFGIHADTFPRWEGIKSK
- styrene production upon feeding of cinnamic acid ([6]; E. coli in LB+Amp medium, 1-10 mM cinnamic acid): failed to produce any styrene
- styrene production upon feeding of cinnamic acid [8]: no styrene production was observed
- styrene production upon feeding of cinnamic acid [10]: no styrene can be observed
